{"source": "the supplement of paper PMC10567573", "parents": {"B1": {"name": "ZNF649 (parent)", "chain": "DECEKAYFYMSCLVKHKRIHSREK"}}, "data": [{"variants_of": "B1", "assay": "protein stability index of a GFP-peptide fusion (GPS, HEK-293T) (PSI 1-6); higher = more stable", "settings": "c terminus: a fixed tail appended", "values": [{"variant": "C12F", "protein stability index": 2.69}, {"variant": "C12V", "protein stability index": 2.42}, {"variant": "C12A", "protein stability index": 2.83}, {"variant": "C12N", "protein stability index": 3.38}, {"variant": "C12P", "protein stability index": 3.05}, {"variant": "C12T", "protein stability index": 3.83}, {"variant": "C12Q", "protein stability index": 3.09}, {"variant": "C12R", "protein stability index": 2.96}, {"variant": "C12S", "protein stability index": 3.68}, {"variant": "C12L", "protein stability index": 2.23}, {"variant": "C12D", "protein stability index": 4.16}, {"variant": "C12K", "protein stability index": 2.8}, {"variant": "C12M", "protein stability index": 2.95}, {"variant": "C12G", "protein stability index": 3.33}, {"variant": "C12E", "protein stability index": 3.54}, {"variant": "C12H", "protein stability index": 3.12}, {"variant": "C12W", "protein stability index": 2.33}, {"variant": "C12Y", "protein stability index": 2.43}, {"variant": "C12I", "protein stability index": 1.64}, {"variant": "H16A", "protein stability index": 2.51}, {"variant": "H16K", "protein stability index": 2.65}, {"variant": "H16Y", "protein stability index": 2.11}, {"variant": "H16C", "protein stability index": 1.76}, {"variant": "H16D", "protein stability index": 3.25}, {"variant": "H16T", "protein stability index": 2.56}, {"variant": "H16F", "protein stability index": 1.79}, {"variant": "H16G", "protein stability index": 3.24}, {"variant": "H16V", "protein stability index": 1.61}, {"variant": "H16L", "protein stability index": 1.84}, {"variant": "H16R", "protein stability index": 2.82}, {"variant": "H16N", "protein stability index": 2.75}, {"variant": "H16I", "protein stability index": 1.69}, {"variant": "H16M", "protein stability index": 1.98}, {"variant": "H16P", "protein stability index": 2.92}, {"variant": "H16S", "protein stability index": 3.06}, {"variant": "H16Q", "protein stability index": 2.64}, {"variant": "H16W", "protein stability index": 2.29}, {"variant": "H16E", "protein stability index": 3.53}, {"variant": "V14Q", "protein stability index": 3.05}, {"variant": "V14Y", "protein stability index": 2.5}, {"variant": "V14W", "protein stability index": 1.64}, {"variant": "V14L", "protein stability index": 2.63}, {"variant": "V14N", "protein stability index": 3.53}, {"variant": "V14H", "protein stability index": 3.86}, {"variant": "V14M", "protein stability index": 2.18}, {"variant": "V14F", "protein stability index": 1.78}, {"variant": "V14I", "protein stability index": 2.11}, {"variant": "V14K", "protein stability index": 3.41}, {"variant": "V14A", "protein stability index": 2.88}, {"variant": "V14R", "protein stability index": 3.12}, {"variant": "V14P", "protein stability index": 3.27}, {"variant": "V14T", "protein stability index": 3.09}, {"variant": "V14C", "protein stability index": 2.33}, {"variant": "V14D", "protein stability index": 3.73}, {"variant": "V14E", "protein stability index": 3.38}, {"variant": "V14S", "protein stability index": 3.65}, {"variant": "V14G", "protein stability index": 2.9}, {"variant": "K15N", "protein stability index": 3.16}, {"variant": "K15W", "protein stability index": 1.53}, {"variant": "K15C", "protein stability index": 2.41}, {"variant": "K15S", "protein stability index": 2.34}, {"variant": "K15E", "protein stability index": 2.54}, {"variant": "K15V", "protein stability index": 1.75}, {"variant": "K15P", "protein stability index": 2.02}, {"variant": "K15F", "protein stability index": 1.87}, {"variant": "K15D", "protein stability index": 3.24}, {"variant": "K15A", "protein stability index": 2.56}, {"variant": "K15Y", "protein stability index": 1.92}, {"variant": "K15Q", "protein stability index": 2.3}, {"variant": "K15G", "protein stability index": 2.29}, {"variant": "K15L", "protein stability index": 2.15}, {"variant": "K15M", "protein stability index": 1.9}, {"variant": "K15I", "protein stability index": 2.18}, {"variant": "K15R", "protein stability index": 2.12}, {"variant": "K15H", "protein stability index": 2.45}, {"variant": "K15T", "protein stability index": 2.16}, {"variant": "S11V", "protein stability index": 1.87}, {"variant": "S11P", "protein stability index": 3.24}, {"variant": "S11D", "protein stability index": 3.55}, {"variant": "S11G", "protein stability index": 3.21}, {"variant": "S11I", "protein stability index": 1.76}, {"variant": "S11F", "protein stability index": 1.66}, {"variant": "S11A", "protein stability index": 2.07}, {"variant": "S11C", "protein stability index": 2.13}, {"variant": "S11E", "protein stability index": 2.62}, {"variant": "S11Q", "protein stability index": 3.03}, {"variant": "S11T", "protein stability index": 2.94}, {"variant": "S11Y", "protein stability index": 2.68}, {"variant": "S11M", "protein stability index": 2.37}, {"variant": "S11K", "protein stability index": 2}, {"variant": "S11N", "protein stability index": 2.97}, {"variant": "S11W", "protein stability index": 1.33}, {"variant": "S11H", "protein stability index": 2.82}, {"variant": "S11L", "protein stability index": 1.74}, {"variant": "S11R", "protein stability index": 2.47}, {"variant": "K17P", "protein stability index": 2.35}, {"variant": "K17F", "protein stability index": 2.83}, {"variant": "K17M", "protein stability index": 1.61}, {"variant": "K17Q", "protein stability index": 2.3}, {"variant": "K17D", "protein stability index": 2.85}, {"variant": "K17H", "protein stability index": 2.05}, {"variant": "K17A", "protein stability index": 2.94}, {"variant": "K17G", "protein stability index": 2.42}, {"variant": "K17L", "protein stability index": 1.91}, {"variant": "K17N", "protein stability index": 2.45}, {"variant": "K17E", "protein stability index": 2.54}, {"variant": "K17I", "protein stability index": 1.68}, {"variant": "K17C", "protein stability index": 1.83}, {"variant": "M10Y", "protein stability index": 3.11}, {"variant": "M10V", "protein stability index": 2.38}, {"variant": "M10H", "protein stability index": 3.47}, {"variant": "M10S", "protein stability index": 3.19}, {"variant": "M10D", "protein stability index": 3.97}, {"variant": "M10A", "protein stability index": 3.61}, {"variant": "M10R", "protein stability index": 3.32}, {"variant": "M10N", "protein stability index": 4.14}, {"variant": "M10L", "protein stability index": 2.19}, {"variant": "M10E", "protein stability index": 3.92}, {"variant": "M10F", "protein stability index": 2.33}, {"variant": "M10P", "protein stability index": 3.16}, {"variant": "M10C", "protein stability index": 2.75}, {"variant": "M10Q", "protein stability index": 4.12}, {"variant": "M10K", "protein stability index": 3.74}, {"variant": "M10I", "protein stability index": 1.86}, {"variant": "M10G", "protein stability index": 2.56}, {"variant": "M10W", "protein stability index": 2.36}, {"variant": "M10T", "protein stability index": 3.19}, {"variant": "Y9R", "protein stability index": 3.9}, {"variant": "Y9Q", "protein stability index": 3}, {"variant": "Y9K", "protein stability index": 3.73}, {"variant": "Y9C", "protein stability index": 2.81}, {"variant": "Y9H", "protein stability index": 3.03}, {"variant": "Y9F", "protein stability index": 2.66}, {"variant": "Y9T", "protein stability index": 3.94}, {"variant": "Y9P", "protein stability index": 3.78}, {"variant": "Y9V", "protein stability index": 2.54}, {"variant": "Y9L", "protein stability index": 2.35}, {"variant": "Y9E", "protein stability index": 3}, {"variant": "Y9A", "protein stability index": 3.71}, {"variant": "Y9W", "protein stability index": 3.49}, {"variant": "Y9I", "protein stability index": 2.42}, {"variant": "Y9M", "protein stability index": 2.57}, {"variant": "Y9S", "protein stability index": 3.56}, {"variant": "Y9D", "protein stability index": 4.51}, {"variant": "Y9G", "protein stability index": 4.26}, {"variant": "Y9N", "protein stability index": 3.93}, {"variant": "L13C", "protein stability index": 3.27}, {"variant": "L13V", "protein stability index": 2.98}, {"variant": "L13H", "protein stability index": 2.95}, {"variant": "L13G", "protein stability index": 3.24}, {"variant": "L13Q", "protein stability index": 2.99}, {"variant": "L13P", "protein stability index": 3.1}, {"variant": "L13M", "protein stability index": 3.25}, {"variant": "L13E", "protein stability index": 3.61}, {"variant": "L13F", "protein stability index": 3.18}, {"variant": "L13K", "protein stability index": 2.68}, {"variant": "L13T", "protein stability index": 2.81}, {"variant": "L13R", "protein stability index": 2.15}, {"variant": "L13A", "protein stability index": 3.07}, {"variant": "L13I", "protein stability index": 2.29}, {"variant": "L13D", "protein stability index": 4.25}, {"variant": "L13W", "protein stability index": 3.19}, {"variant": "L13Y", "protein stability index": 2.21}, {"variant": "L13N", "protein stability index": 3.65}, {"variant": "L13S", "protein stability index": 2.79}, {"variant": "F8Y", "protein stability index": 2.65}, {"variant": "F8W", "protein stability index": 3.07}]}]}
